Reference: patent publication US20120253009A1 (Amgen, published 2012)
Positions count from the first letter of the chain named.

T1: human mpl receptor (human, UniProt P40238 26-635)
T1 sequence (looked up): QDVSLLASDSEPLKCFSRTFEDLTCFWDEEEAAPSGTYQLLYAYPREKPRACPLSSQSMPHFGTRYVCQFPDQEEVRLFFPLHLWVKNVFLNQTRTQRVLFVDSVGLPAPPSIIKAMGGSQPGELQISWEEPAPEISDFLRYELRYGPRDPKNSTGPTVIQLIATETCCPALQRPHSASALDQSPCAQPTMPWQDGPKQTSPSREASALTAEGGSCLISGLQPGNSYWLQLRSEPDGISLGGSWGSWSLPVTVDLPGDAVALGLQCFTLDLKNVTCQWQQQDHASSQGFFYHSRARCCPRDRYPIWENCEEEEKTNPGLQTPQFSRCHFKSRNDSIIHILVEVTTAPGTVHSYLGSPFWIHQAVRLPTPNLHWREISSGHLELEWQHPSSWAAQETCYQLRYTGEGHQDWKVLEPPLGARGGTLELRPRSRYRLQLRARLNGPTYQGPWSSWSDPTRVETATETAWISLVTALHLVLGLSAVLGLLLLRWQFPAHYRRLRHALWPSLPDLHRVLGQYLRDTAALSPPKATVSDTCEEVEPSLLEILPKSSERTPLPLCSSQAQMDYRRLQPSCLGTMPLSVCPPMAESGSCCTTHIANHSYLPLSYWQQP

B1: Fc-Loop (Sym) (SEQ ID NO: 35) (Fc fusion)
chain: MDKTHTCPPCPAPELLGGPSVFLFPPKPKDTLMISRTPEVTCVVVDVSHEDPEVKFNWYVDGVEVHNAKTKPREEQYNSTYRVVSVLTVLHQDWLNGKEYKCKVSNKALPAPIEKTISKAKGQPREPQVYTLPPSRDELGGQGCSSGGPTLREWQQCRRMQHSGGTKNQVSLTCLVKGFYPSDIAVEWESNGQPENNYKTTPPVLDSDGSFFLYSKLTVDKSRWQQGNVFSCSVMHEALHNHYTQKSLSLSPGK
B2: Fc-Loop (Sym) (SEQ ID NO: 6) (Fc fusion)
chain: B1 chain with M160A
B3: Fc-Loop (Sym) (SEQ ID NO: 5) (Fc fusion)
chain: B1 chain with R158V
B4: Fc-Loop (Asym) (SEQ ID NO: 35) (Fc fusion)
chain: MDKTHTCPPCPAPELLGGPSVFLFPPKPKDTLMISRTPEVTCVVVDVSHEDPEVKFNWYVDGVEVHNAKTKPREEQYNSTYRVVSVLTVLHQDWLNGKEYKCKVSNKALPAPIEKTISKAKGQPREPQVYTLPPSRDELGGGGQGCSSGGPTLREWQQCRRMQHSGGTKNQVSLTCLVKGFYPSDIAVEWESNGQPENNYKTTPPVLDSDGSFFLYSKLTVDKSRWQQGNVFSCSVMHEALHNHYTQKSLSLSPGK
B5: Fc-Loop (Asym) (SEQ ID NO: 5) (Fc fusion)
chain: B4 chain with R160V

The binders below were run against T1, human mpl receptor (assay: cell-based or functional assay).

EC50 on 32Dcl23/Mpl [pM]	Binder
15	B1
12	B2
10	B3
13	B4
6	B5
